Assay results reported in patent US20220119513A1 (ZOETIS SERVICES, published 2022).

T1: TGFβ3 (R&D Systems) (Homo sapiens (Human), UniProt P10600 301-412, Active TGFβ3 is a disulfide-linked homodimer of this chain; one copy is given.)
T1 sequence: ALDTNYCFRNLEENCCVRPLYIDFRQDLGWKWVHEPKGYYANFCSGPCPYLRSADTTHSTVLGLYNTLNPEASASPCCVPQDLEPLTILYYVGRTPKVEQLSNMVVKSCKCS

T2: TGFβ2 (R&D Systems)
T2 sequence (P61812 303-414, species assumed, looked up): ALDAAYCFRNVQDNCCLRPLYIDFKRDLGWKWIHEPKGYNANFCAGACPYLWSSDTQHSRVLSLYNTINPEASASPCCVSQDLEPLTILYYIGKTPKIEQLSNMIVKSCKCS


Columns and labels:
TGFβ1 (R&D Systems) [1] = test: cell-based or functional assay
TGFβ3 (R&D Systems) [2] = biological target: T1, TGFβ3 (R&D Systems); test: cell-based or functional assay
TGFβ2 (R&D Systems) [3] = biological target: T2, TGFβ2 (R&D Systems); test: cell-based or functional assay
TGFβ1 (R&D Systems) [4] = biological target: T3, TGFβ1 (R&D Systems); test: SPR full titration
T3 construct: also called TGFB1

TGFβ3 (R&D Systems) [5] = biological target: T1, TGFβ3 (R&D Systems); test: SPR full titration
TGFβ2 (R&D Systems) [6] = biological target: T2, TGFβ2 (R&D Systems); test: SPR full titration
TGFβ1 (R&D Systems) [7] = biological target: T3, TGFβ1 (R&D Systems); test: cell-based or functional assay; remark: listed apart in the source
TGFβ1 (R&D Systems) [8] = biological target: T3, TGFβ1 (R&D Systems); test: SPR full titration; remark: listed apart in the source
TGFβ1 (R&D Systems) [9] = biological target: T3, TGFβ1 (R&D Systems); test: single point SPR

T3 sequence (P01137 279-390): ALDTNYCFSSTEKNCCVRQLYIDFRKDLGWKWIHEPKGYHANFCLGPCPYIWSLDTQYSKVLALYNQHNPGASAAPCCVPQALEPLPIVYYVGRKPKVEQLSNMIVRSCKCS

Row | Binder | pSmad-3, IC50 (TGFβ1 (R&D Systems) [1]) [nM] | pSmad-3, IC50 (TGFβ3 (R&D Systems) [2]) [nM] | pSmad-3, IC50 (TGFβ2 (R&D Systems) [3]) [nM] | Kd (TGFβ1 (R&D Systems) [4]) [nM] | Kd (TGFβ3 (R&D Systems) [5]) [nM] | Kd (TGFβ2 (R&D Systems) [6]) [nM] | CMVIC pSmad-3, IC50 (TGFβ1 (R&D Systems) [7]) [nM] | Kd (TGFβ1 (R&D Systems) [8]) [nM] | Kd (TGFβ1 (R&D Systems) [9]) [nM]
1 | Can-SL501-VH3 D108K / Can-SL501-VL2 (antibody, V domains shown) VH: EVQLVESGGDLVKPGGSLRLSCVASGFTFSSYGMHWVRQAPGKELEWVAVISYDGSIKYYADAVKGRFTISRDNAKNTLYLQMNSLRAEDTAVYYCARTGEYSGYDTKPQYSWGQGTTVTVSS VL: EIVMTQSPGSLAGSAGESVSINCRASQGIGDDLGWYQQKPGERPKLLIYGTSTLQSGVPARFSSSGSGTDFTLTINNLQAEDVGDYYCLQDSNYPLTFGAGTK |  |  |  |  |  |  | 10.9 | 0.0346 | 0.283
2 | Can-SL501-VH3 Y111L / Can-SL501-VL2 (antibody, V domains shown) VH: EVQLVESGGDLVKPGGSLRLSCVASGFTFSSYGMHWVRQAPGKELEWVAVISYDGSIKYYADAVKGRFTISRDNAKNTLYLQMNSLRAEDTAVYYCARTGEYSGYDTDPQLSWGQGTTVTVSS VL: EIVMTQSPGSLAGSAGESVSINCRASQGIGDDLGWYQQKPGERPKLLIYGTSTLQSGVPARFSSSGSGTDFTLTINNLQAEDVGDYYCLQDSNYPLTFGAGTK |  |  |  |  |  |  | 32.6 |  | 1.11
3 | Can-SL501-VH3 P109T / Can-SL501-VL2 (antibody, V domains shown) VH: EVQLVESGGDLVKPGGSLRLSCVASGFTFSSYGMHWVRQAPGKELEWVAVISYDGSIKYYADAVKGRFTISRDNAKNTLYLQMNSLRAEDTAVYYCARTGEYSGYDTDTQYSWGQGTTVTVSS VL: EIVMTQSPGSLAGSAGESVSINCRASQGIGDDLGWYQQKPGERPKLLIYGTSTLQSGVPARFSSSGSGTDFTLTINNLQAEDVGDYYCLQDSNYPLTFGAGTK |  |  |  |  |  |  | 30 | 0.0836 | 0.752
4 | Can-SL501-VH3 P109A / Can-SL501-VL2 (antibody, V domains shown) VH: EVQLVESGGDLVKPGGSLRLSCVASGFTFSSYGMHWVRQAPGKELEWVAVISYDGSIKYYADAVKGRFTISRDNAKNTLYLQMNSLRAEDTAVYYCARTGEYSGYDTDAQYSWGQGTTVTVSS VL: EIVMTQSPGSLAGSAGESVSINCRASQGIGDDLGWYQQKPGERPKLLIYGTSTLQSGVPARFSSSGSGTDFTLTINNLQAEDVGDYYCLQDSNYPLTFGAGTK |  |  |  |  |  |  | 20.8 | 0.135 | 1.1
5 | Can-SL501-VH3 D108R / Can-SL501-VL2 (antibody, V domains shown) VH: EVQLVESGGDLVKPGGSLRLSCVASGFTFSSYGMHWVRQAPGKELEWVAVISYDGSIKYYADAVKGRFTISRDNAKNTLYLQMNSLRAEDTAVYYCARTGEYSGYDTRPQYSWGQGTTVTVSS VL: EIVMTQSPGSLAGSAGESVSINCRASQGIGDDLGWYQQKPGERPKLLIYGTSTLQSGVPARFSSSGSGTDFTLTINNLQAEDVGDYYCLQDSNYPLTFGAGTK |  |  |  |  |  |  | 25.2 | 0.0651 | 0.759
6 | affinity matured HcLb 233 (antibody, V domains shown, full IgG; also called canHcLb/55SW/100DY/57/SM + canHcLb/237ND/242TS) VH: EVQLVQSGAEVKKPGASVKVSCKTSGYTFITYWMNWVRQAPGAGLDWMGQIFPAWGMTNYNEMFEGRVTLTADTSTSTAYMELSSLRAGDIAVYYCARGYGNYALDAMDYWGQGTLVTVSS VL: DIVMTQTPPSLSVSPRETASISCRASESVDSYGNSFMHWYLQKPGQSPQLLIYLASNLESGVSDRFSGSGSGTDFTLRISRVEANDTGVYYCQQNDEDPLSFGQGTK | 0.71 | 1.33 | 1.68 | 2.03 | 0.457 | 3.98 |  |  | 
7 | affinity matured HcLb 237 (antibody, V domains shown, full IgG; also called canHcLb/55SW/100DY/57/SV + canHcLb/237ND/242TS) VH: EVQLVQSGAEVKKPGASVKVSCKTSGYTFITYWMNWVRQAPGAGLDWMGQIFPAWGVTNYNEMFEGRVTLTADTSTSTAYMELSSLRAGDIAVYYCARGYGNYALDAMDYWGQGTLVTVSS VL: DIVMTQTPPSLSVSPRETASISCRASESVDSYGNSFMHWYLQKPGQSPQLLIYLASNLESGVSDRFSGSGSGTDFTLRISRVEANDTGVYYCQQNDEDPLSFGQGTK | 0.76 | 1.05 | 1.6 | 2.27 | 0.476 | 4.07 |  |  | 
8 | affinity matured HcLb 188 (antibody, V domains shown, full IgG; constant regions not restated) VH: EVQLVQSGAEVKKPGASVKVSCKTSGYTFITYWMNWVRQAPGAGLDWMGQIFPAWGSTNYNEMFEGRVTLTADTSTSTAYMELSSLRAGDIAVYYCARGYGNYALDAMDYWGQGTLVTVSS VL: DIVMTQTPPSLSVSPRETASISCRASESVDSYGNSFMHWYLQKPGQSPQLLIYLASNLESGVSDRFSGSGSGTDFTLRISRVEANDTGVYYCQQNNEDPLTFGQ | 2.73 | 1.46 | 2.29 | 3.96 | 0.417 | 0.937 |  |  | 
9 | affinity matured HcLb 257 (antibody, V domains shown, full IgG; also called canHcLb/55SW/100DY/30IM/31TK + canHcLb/237ND/242TS) VH: EVQLVQSGAEVKKPGASVKVSCKTSGYTFMKYWMNWVRQAPGAGLDWMGQIFPAWGSTNYNEMFEGRVTLTADTSTSTAYMELSSLRAGDIAVYYCARGYGNYALDAMDYWGQGTLVTVSS VL: DIVMTQTPPSLSVSPRETASISCRASESVDSYGNSFMHWYLQKPGQSPQLLIYLASNLESGVSDRFSGSGSGTDFTLRISRVEANDTGVYYCQQNDEDPLSFGQGTK | 0.7 | 1.6 | 2.02 | 2.03 | 0.649 | 4.72 |  |  | 
10 | affinity matured HcLb 239 (antibody, V domains shown, full IgG; also called canHcLb/55SW/100DY/31/TK + canHcLb/237ND/242TS) VH: EVQLVQSGAEVKKPGASVKVSCKTSGYTFIKYWMNWVRQAPGAGLDWMGQIFPAWGSTNYNEMFEGRVTLTADTSTSTAYMELSSLRAGDIAVYYCARGYGNYALDAMDYWGQGTLVTVSS VL: DIVMTQTPPSLSVSPRETASISCRASESVDSYGNSFMHWYLQKPGQSPQLLIYLASNLESGVSDRFSGSGSGTDFTLRISRVEANDTGVYYCQQNDEDPLSFGQGTK | 1.43 | 1.54 | 5.42 | 3.53 | 0.431 | 6.44 |  |  | 

Continued, values first:

Row | pSmad-3, IC50 (TGFβ1 (R&D Systems) [1]) [nM] | pSmad-3, IC50 (TGFβ3 (R&D Systems) [2]) [nM] | pSmad-3, IC50 (TGFβ2 (R&D Systems) [3]) [nM] | Kd (TGFβ1 (R&D Systems) [4]) [nM] | Kd (TGFβ3 (R&D Systems) [5]) [nM] | Kd (TGFβ2 (R&D Systems) [6]) [nM] | CMVIC pSmad-3, IC50 (TGFβ1 (R&D Systems) [7]) [nM] | Kd (TGFβ1 (R&D Systems) [8]) [nM] | Kd (TGFβ1 (R&D Systems) [9]) [nM] | Binder
11 | 1.33 | 1.24 | 1.64 | 3.79 | 0.79 | 4.36 |  |  |  | affinity matured HcLb 260 (antibody, V domains shown, full IgG; constant regions not restated) VH: SEVQLVQSGAEVKKPGASVKVSCKTSGYTFITYWMNWVRQAPGAGLDWMGQIFPAWGVTNYNEMFEGRVTLTADTSTSTAYMELSSLRAGDIAVYYCARGYGNYALDAMDYWGQGTLVTVSS VL: DIVMTQTPPSLSVSPRETASISCRASESVDSYGNSFMHWYLQKPGQSPQLLIYLASNLESGVSDRFSGSGSGTDFTLRISRVEANDTGVYYCQQNNEDPLTFGQ
12 | 0.99 | 1.48 | 1.37 | 3.05 | 0.78 | 3.75 |  |  |  | affinity matured HcLb 259 (antibody, V domains shown, full IgG; constant regions not restated) VH: EVQLVQSGAEVKKPGASVKVSCKTSGYTFITYWMNWVRQAPGAGLDWMGQIFPAWGMTNYNEMFEGRVTLTADTSTSTAYMELSSLRAGDIAVYYCARGYGNYALDAMDYWGQGTLVTVSS VL: DIVMTQTPPSLSVSPRETASISCRASESVDSYGNSFMHWYLQKPGQSPQLLIYLASNLESGVSDRFSGSGSGTDFTLRISRVEANDTGVYYCQQNNEDPLTFGQ
13 | 3.16 | 1.37 | 1.85 | 6.18 | 0.856 | 6.73 |  |  |  | affinity matured HcLb 262 (antibody, V domains shown, full IgG; constant regions not restated) VH: EVQLVQSGAEVKKPGASVKVSCKTSGYTFIKYWMNWVRQAPGAGLDWMGQIFPAWGSTNYNEMFEGRVTLTADTSTSTAYMELSSLRAGDIAVYYCARGYGNYALDAMDYWGQGTLVTVSS VL: DIVMTQTPPSLSVSPRETASISCRASESVDSYGNSFMHWYLQKPGQSPQLLIYLASNLESGVSDRFSGSGSGTDFTLRISRVEANDTGVYYCQQNNEDPLTFGQ
14 | 0.69 | 1.2 | 1.15 | 6.18 | 0.87 | 3.92 |  |  |  | affinity matured HcLb 261 (antibody, V domains shown, full IgG; constant regions not restated) VH: EVQLVQSGAEVKKPGASVKVSCKTSGYTFMTYWMNWVRQAPGAGLDWMGQIFPAWGSTNYNEMFEGRVTLTADTSTSTAYMELSSLRAGDIAVYYCARGYGNYALDAMDYWGQGTLVTVSS VL: DIVMTQTPPSLSVSPRETASISCRASESVDSYGNSFMHWYLQKPGQSPQLLIYLASNLESGVSDRFSGSGSGTDFTLRISRVEANDTGVYYCQQNNEDPLTFGQ
15 | 1.41 | 1.03 | 2.1 | 3.76 | 0.37 | 2.91 |  |  |  | affinity matured HcLb 263 (antibody, V domains shown, full IgG; constant regions not restated) VH: EVQLVQSGAEVKKPGASVKVSCKTSGYIFITYWMNWVRQAPGAGLDWMGQIFPAWGSTNYNEMFEGRVTLTADTSTSTAYMELSSLRAGDIAVYYCARGYGNYALDAMDYWGQGTLVTVSS VL: DIVMTQTPPSLSVSPRETASISCRASESVDSYGNSFMHWYLQKPGQSPQLLIYLASNLESGVSDRFSGSGSGTDFTLRISRVEANDTGVYYCQQNNEDPLTFGQ
16 | 0.61 | 1.09 | 0.79 | 3.81 | 8.6 | 4.4 |  |  |  | affinity matured HcLb 258 (antibody, V domains shown, full IgG; constant regions not restated) VH: EVQLVQSGAEVKKPGASVKVSCKTSGYTFMKYWMNWVRQAPGAGLDWMGQIFPAWGSTNYNEMFEGRVTLTADTSTSTAYMELSSLRAGDIAVYYCARGYGNYALDAMDYWGQGTLVTVSS VL: DIVMTQTPPSLSVSPRETASISCRASESVDSYGNSFMHWYLQKPGQSPQLLIYLASNLESGVSDRFSGSGSGTDFTLRISRVEANDTGVYYCQQNNEDPLTFGQ
